Data on 1 substance can be found in publication PMC6707239.

Test [1] addresses human mitochondrial heat shock protein 60 (hsp60), wild type (human) (UniProt P10809). Description: dynamic light scattering; 1 uM hsp60 (wild type or mutant), 2 uM hsp10, 2 mM ADP; 5 min at 37 C; unbound nucleotide removed on desalting spin columns.
For test [2] the target is unchanged. Description: dynamic light scattering; 1 uM hsp60 (wild type or mutant), 2 uM hsp10, 100 mM ATP, 100 mM MgCl2; 5 min at 37 C; unbound nucleotide removed on desalting spin columns.
For test [3] the target is unchanged. The test can be described thus: negative-stain electron microscopy; wild type hsp60/hsp10 with 2 mM ATP, about 5 min at room temperature, no substrate; bullet reconstruction, C7 symmetry, about 17 A.
The target is the same in test [4]. The test can be described thus: dynamic light scattering; Malvern Zetasizer Nano ZS, hsp60 (wild type or mutant) without nucleotide (APO); percent volume.
Test [5] shares this target. The test can be described thus: negative-stain electron microscopy; hsp60 and hsp10 (1:1 molar ratio) with 2 mM Mg-ADP, about 5 min at room temperature, no substrate.
Test [6] has the same target. The test can be described thus: negative-stain electron microscopy; purified hsp60/hsp10 at 0.2 mg/ml on carbon grids, no nucleotide and no substrate (APO conformation); class averages and single-particle reconstruction.
The target is the same in test [7]. Description: negative-stain electron microscopy; hsp60 and hsp10 (2:1 molar ratio) with 100 mM ATP, about 5 min at room temperature, no substrate; football reconstruction, D7 symmetry, about 20 A.

human mitochondrial heat shock protein 60 (hsp60), wild type, sequence (P10809 27-573): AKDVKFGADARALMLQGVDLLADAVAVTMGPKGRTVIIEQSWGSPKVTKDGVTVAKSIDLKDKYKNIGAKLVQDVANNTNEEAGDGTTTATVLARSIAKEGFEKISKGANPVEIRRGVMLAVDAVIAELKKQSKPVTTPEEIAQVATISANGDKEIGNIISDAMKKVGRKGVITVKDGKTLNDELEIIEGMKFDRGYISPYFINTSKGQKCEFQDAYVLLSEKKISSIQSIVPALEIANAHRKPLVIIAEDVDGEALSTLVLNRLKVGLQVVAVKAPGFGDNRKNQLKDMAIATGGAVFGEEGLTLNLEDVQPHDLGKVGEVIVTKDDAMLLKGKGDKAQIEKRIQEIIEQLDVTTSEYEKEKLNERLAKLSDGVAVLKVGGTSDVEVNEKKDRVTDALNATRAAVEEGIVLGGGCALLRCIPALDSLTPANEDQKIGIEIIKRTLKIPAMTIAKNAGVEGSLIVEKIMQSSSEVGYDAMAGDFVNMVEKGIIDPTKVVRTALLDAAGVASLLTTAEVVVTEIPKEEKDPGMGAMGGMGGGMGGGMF

In the case of “human mitochondrial heat shock protein 60 (hsp60), wild type (from UniProt P10809 27-573) (natural protein)”, the stoichiometry N was determined as 14 in test [1]; 14 in test [2]; 14 in test [3]; 14 in test [4]; 7 in test [5]; 14 in test [6]. Also, the stoichiometry N in test [7] was 14.
